Target: T1, GST-VRK1 (human, UniProt Q99986 1-396)
T1 sequence (looked up): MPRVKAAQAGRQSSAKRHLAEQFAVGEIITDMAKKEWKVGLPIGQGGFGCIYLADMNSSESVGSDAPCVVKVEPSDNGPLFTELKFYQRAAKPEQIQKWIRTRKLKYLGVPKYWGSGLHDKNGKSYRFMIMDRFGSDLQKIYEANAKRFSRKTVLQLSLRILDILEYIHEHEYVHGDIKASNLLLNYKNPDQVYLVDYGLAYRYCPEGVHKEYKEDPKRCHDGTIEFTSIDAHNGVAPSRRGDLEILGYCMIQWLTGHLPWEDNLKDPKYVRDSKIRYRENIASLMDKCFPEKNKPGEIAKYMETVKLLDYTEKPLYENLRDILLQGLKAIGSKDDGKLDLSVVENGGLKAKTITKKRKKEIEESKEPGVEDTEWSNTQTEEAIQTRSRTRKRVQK
Assay: cell-based or functional assay

IC50 of SIRT2 for inhibition of VRK1 autophosphorylation (in vitro kinase assay, dose-dependent): 190 nM
IC50 of SIRT2 for inhibition of the phosphorylation of histone H3 by VRK1 (in vitro kinase assay, dose-dependent): 150 nM
B1: SIRT2-his (enzyme, human, UniProt Q8IXJ6 1-389, looked up)
chain: MAEPDPSHPLETQAGKVQEAQDSDSDSEGGAAGGEADMDFLRNLFSQTLSLGSQKERLLDELTLEGVARYMQSERCRRVICLVGAGISTSAGIPDFRSPSTGLYDNLEKYHLPYPEAIFEISYFKKHPEPFFALAKELYPGQFKPTICHYFMRLLKDKGLLLRCYTQNIDTLERIAGLEQEDLVEAHGTFYTSHCVSASCRHEYPLSWMKEKIFSEVTPKCEDCQSLVKPDIVFFGESLPARFFSCMQSDFLKVDLLLVMGTSLQVQPFASLISKAPLSTPRLLINKEKAGQSDPFLGMIMGLGGGMDFDSKKAYRDVAWLGECDQGCLALAELLGWKKELEDLVRREHASIDAQSGAGVPNPSTSASPKKSPPPAKDEARTTEREKPQ

— article PMC10003087, “VRK1 Kinase Activity Modulating Histone H4K16 Acetylation Inhibited by SIRT2 and VRK-IN-1” (International Journal of Molecular Sciences, 2023)
